Measured values as given in the supplement of paper PMC7877785.
± gives the uncertainty stated by the source.

Experiment: self-splicing fitness, log relative to wild type (ln ratio); higher = more splicing; Tetrahymena group I intron in knt gene, E. coli kanamycin selection, DiMSum; sequences stand for … in CUCUCU…GGAGGGAAAAGUUAUCAGGCAUGCACCUGGUAGCUAGUCUUUAAACCAAUAGAUUGCAUCGGUUUAAAAGGCAAGACCGUCAAAUUGCGGGAAAGGGGUCAACAGCCGUUCAGUACCAAGUCUCAGGGGAAACUUUGAGAUGGCCUUGCAAAGGGUAUGGUAAUAAGCUGACGGACAUGGUCCUAACCACGCAGCCAAGUCCUAAGUCAACAGAUCUUCUGUUGAUAUGGAUGCAGUUCACAGACUAAAUGUCGGUCGGGGAAGAUGUAUUCUUCUCAUAAGAUAUAGUCGGACCUCUCCUUAAUGGGAGCUAGCGGAUGAAGUGAUGCAACACUGGAGCCGCUGGGAACUAAUUUGUAUGCGAAAGUAUAUUGAUUAGUUUUGGAGUACUCGUGGUCG
In short: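 Library with all eight P1ex-region intron nucleotides randomised, intron inside the knt kanamycin-resistance gene on pET-22b(+), in E. coli BL21(DE3). Cells grew overnight at 37°C or 30°C on LB agar with or without 25 μg/mL kanamycin (plus 100 μg/mL carbenicillin, 50 μM IPTG, 0.2% rhamnose), in six replicate transformations. Pooled colonies were amplicon-sequenced on Illumina HiSeq 2500. DiMSum fitness is the error-weighted combination of wild-type-normalised replicate fold changes, kanamycin versus none.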

For CGAGAGCAAUAUUACGAUGU, which “self-splicing fitness (ln)” value (30 °C) is on record?
Its value is -3.97 ± 0.25.

What about the “self-splicing fitness (ln)” value (37 °C) of the same sequence?
The value was -1.83 ± 0.19.

For CGAGAGCAAUAUUACGAUUG, which “self-splicing fitness (ln)” value (37 °C) is on record?
Its value is -2.09 ± 0.34.

What does the source list for CGAGAGCAAUAUUACGCAUU?
self-splicing fitness (ln) (30 °C): -2.84 ± 0.24; self-splicing fitness (ln) (37 °C): -2.33 ± 0.21

For CGAGAGCAAUAUUACGCUGU, which “self-splicing fitness (ln)” value (37 °C) is on record?
The value was -3.26 ± 0.38.

With CGAGAGCAAUAUUACGGACA as the sequence, how does the “self-splicing fitness (ln)” value (30 °C) read?
The value was -1.85 ± 0.28.

What about the “self-splicing fitness (ln)” value (37 °C) of the same sequence?
The value was -3.4 ± 0.39.

With CGAGAGCAAUAUUACGGAUG as the sequence, how does the “self-splicing fitness (ln)” value (30 °C) read?
The value was -3.42 ± 0.33.

And the “self-splicing fitness (ln)” value (37 °C)?
Its value is -1.83 ± 0.28.

For CGAGAGCAAUAUUACGGCAG, which “self-splicing fitness (ln)” value (30 °C) is on record?
Its value is -2 ± 0.18.

What about the “self-splicing fitness (ln)” value (37 °C) of the same sequence?
The value was -1.33 ± 0.22.

For CGAGAGCAAUAUUACGGGUU, which “self-splicing fitness (ln)” value (37 °C) is on record?
Its value is -2.27 ± 0.5.

Which “self-splicing fitness (ln)” value (30 °C) does the source give for CGAGAGCAAUAUUACGGUCC here?
Its value is -2.23 ± 0.23.

What does the source list for CGAGAGCAAUAUUACGGUCG?
self-splicing fitness (ln) (30 °C): -1.42 ± 0.34; self-splicing fitness (ln) (37 °C): -2.28 ± 0.24

Which “self-splicing fitness (ln)” value (30 °C) does the source give for CGAGAGCAAUAUUACGUACA here?
Its value is -1.64 ± 0.27.

And the “self-splicing fitness (ln)” value (37 °C)?
The value was -1.71 ± 0.42.

Which “self-splicing fitness (ln)” value (30 °C) does the source give for CGAGAGCAAUAUUACGUCAC here?
The value was -4.62 ± 0.39.

And the “self-splicing fitness (ln)” value (37 °C)?
The value was -2.45 ± 0.3.

Which “self-splicing fitness (ln)” value (30 °C) does the source give for CGAGAGCAAUAUUACGUCAG here?
The value was -2.31 ± 0.17.

What about the “self-splicing fitness (ln)” value (37 °C) of the same sequence?
Its value is -2.54 ± 0.21.

Which “self-splicing fitness (ln)” value (30 °C) does the source give for CGAGAGCAAUAUUACGUGAA here?
The value was -3.24 ± 0.2.

What about the “self-splicing fitness (ln)” value (37 °C) of the same sequence?
Its value is -2.44 ± 0.29.

For CGAGAGCAAUAUUACGUGCA, which “self-splicing fitness (ln)” value (30 °C) is on record?
Its value is -3.22 ± 0.23.

And the “self-splicing fitness (ln)” value (37 °C)?
Its value is -3.2 ± 0.43.

With CGAGAGCAAUAUUACGUUCU as the sequence, how does the “self-splicing fitness (ln)” value (30 °C) read?
Its value is -3.16 ± 0.13.

And the “self-splicing fitness (ln)” value (37 °C)?
Its value is -2.83 ± 0.17.

Which “self-splicing fitness (ln)” value (30 °C) does the source give for CGAGAGCAAUAUUACGUUGA here?
Its value is -2.79 ± 0.38.

With CGAUAGCAAUAUUACGAAAA as the sequence, how does the “self-splicing fitness (ln)” value (30 °C) read?
The value was -3.85 ± 0.48.

And the “self-splicing fitness (ln)” value (37 °C)?
Its value is -2.7 ± 0.3.

With CGAUAGCAAUAUUACGAUAG as the sequence, how does the “self-splicing fitness (ln)” value (30 °C) read?
Its value is -0.572 ± 0.089.

And the “self-splicing fitness (ln)” value (37 °C)?
The value was -0.275 ± 0.1.

Which “self-splicing fitness (ln)” value (30 °C) does the source give for CGAUAGCAAUAUUACGAUGG here?
The value was -0.196 ± 0.12.

And the “self-splicing fitness (ln)” value (37 °C)?
Its value is -0.185 ± 0.2.

Which results are given for CGAUAGCAAUAUUACGAUUA?
self-splicing fitness (ln) (30 °C): -1.59 ± 0.13; self-splicing fitness (ln) (37 °C): -0.77 ± 0.15

Which results are given for CGAUAGCAAUAUUACGCCUG?
self-splicing fitness (ln) (30 °C): -0.681 ± 0.15; self-splicing fitness (ln) (37 °C): 0.308 ± 0.11

What does the source list for CGAUAGCAAUAUUACGCGAC?
self-splicing fitness (ln) (30 °C): -2.59 ± 0.32; self-splicing fitness (ln) (37 °C): -1.35 ± 0.28

For CGAUAGCAAUAUUACGCGGG, which “self-splicing fitness (ln)” value (30 °C) is on record?
The value was -4.21 ± 0.31.

What about the “self-splicing fitness (ln)” value (37 °C) of the same sequence?
Its value is -2.42 ± 0.24.

Which results are given for CGAUAGCAAUAUUACGCGGU?
self-splicing fitness (ln) (30 °C): -3.13 ± 0.27; self-splicing fitness (ln) (37 °C): -1.94 ± 0.19

With CGAUAGCAAUAUUACGCUAU as the sequence, how does the “self-splicing fitness (ln)” value (30 °C) read?
The value was -2.82 ± 0.19.

For CGAUAGCAAUAUUACGCUUU, which “self-splicing fitness (ln)” value (30 °C) is on record?
Its value is -3.56 ± 0.35.

What about the “self-splicing fitness (ln)” value (37 °C) of the same sequence?
The value was -3.14 ± 0.34.

With CGAUAGCAAUAUUACGGACC as the sequence, how does the “self-splicing fitness (ln)” value (30 °C) read?
The value was -1.78 ± 0.36.

What about the “self-splicing fitness (ln)” value (37 °C) of the same sequence?
Its value is -1.7 ± 0.29.

Which results are given for CGAUAGCAAUAUUACGGCAC?
self-splicing fitness (ln) (30 °C): -2.47 ± 0.33; self-splicing fitness (ln) (37 °C): -1.49 ± 0.31

For CGAUAGCAAUAUUACGGCCA, which “self-splicing fitness (ln)” value (30 °C) is on record?
The value was -1.22 ± 0.12.

And the “self-splicing fitness (ln)” value (37 °C)?
Its value is -0.957 ± 0.15.

For CGAUAGCAAUAUUACGGGAG, which “self-splicing fitness (ln)” value (30 °C) is on record?
The value was -2.86 ± 0.24.

And the “self-splicing fitness (ln)” value (37 °C)?
The value was -2.39 ± 0.24.

Which results are given for CGAUAGCAAUAUUACGGGCG?
self-splicing fitness (ln) (30 °C): -1.67 ± 0.12; self-splicing fitness (ln) (37 °C): -0.602 ± 0.11

Which “self-splicing fitness (ln)” value (37 °C) does the source give for CGAUAGCAAUAUUACGGGGA here?
The value was -2.27 ± 0.28.

For CGAUAGCAAUAUUACGGUAA, which “self-splicing fitness (ln)” value (30 °C) is on record?
Its value is -3.58 ± 0.31.

What about the “self-splicing fitness (ln)” value (37 °C) of the same sequence?
The value was -1.8 ± 0.27.

Which “self-splicing fitness (ln)” value (30 °C) does the source give for CGAUAGCAAUAUUACGGUAC here?
The value was -3.93 ± 0.24.

And the “self-splicing fitness (ln)” value (37 °C)?
The value was -2.89 ± 0.25.

Which “self-splicing fitness (ln)” value (30 °C) does the source give for CGAUAGCAAUAUUACGGUGG here?
The value was -1.03 ± 0.086.

And the “self-splicing fitness (ln)” value (37 °C)?
The value was -0.748 ± 0.09.

Which “self-splicing fitness (ln)” value (30 °C) does the source give for CGAUAGCAAUAUUACGUAAA here?
The value was -2.6 ± 0.32.

What about the “self-splicing fitness (ln)” value (37 °C) of the same sequence?
Its value is -0.509 ± 0.26.

What does the source list for CGAUAGCAAUAUUACGUAGG?
self-splicing fitness (ln) (30 °C): -0.695 ± 0.056; self-splicing fitness (ln) (37 °C): -0.444 ± 0.068

With CGAUAGCAAUAUUACGUCUC as the sequence, how does the “self-splicing fitness (ln)” value (30 °C) read?
The value was -2.61 ± 0.19.

And the “self-splicing fitness (ln)” value (37 °C)?
The value was -2.55 ± 0.32.

What does the source list for CGAUAGCAAUAUUACGUGAC?
self-splicing fitness (ln) (30 °C): -2.87 ± 0.18; self-splicing fitness (ln) (37 °C): -2.36 ± 0.23

What does the source list for CGAUAGCAAUAUUACGUGCA?
self-splicing fitness (ln) (30 °C): -2.67 ± 0.15; self-splicing fitness (ln) (37 °C): -2.13 ± 0.16

What does the source list for CGAUAGCAAUAUUACGUUAG?
self-splicing fitness (ln) (30 °C): -0.734 ± 0.084; self-splicing fitness (ln) (37 °C): -0.52 ± 0.093

For CGAUAGCAAUAUUACGUUUA, which “self-splicing fitness (ln)” value (37 °C) is on record?
The value was -2.57 ± 0.21.

For CGCAAGCAAUAUUACGAUCA, which “self-splicing fitness (ln)” value (30 °C) is on record?
The value was -1.58 ± 0.12.

What about the “self-splicing fitness (ln)” value (37 °C) of the same sequence?
The value was 0.00155 ± 0.11.

What does the source list for CGCAAGCAAUAUUACGAUUA?
self-splicing fitness (ln) (30 °C): -2.6 ± 0.17; self-splicing fitness (ln) (37 °C): -1.29 ± 0.15

Which results are given for CGCAAGCAAUAUUACGCAUA?
self-splicing fitness (ln) (30 °C): -3.81 ± 0.3; self-splicing fitness (ln) (37 °C): -0.539 ± 0.15

With CGCAAGCAAUAUUACGCGAC as the sequence, how does the “self-splicing fitness (ln)” value (30 °C) read?
The value was -3.77 ± 0.39.

What about the “self-splicing fitness (ln)” value (37 °C) of the same sequence?
The value was -1.68 ± 0.18.

For CGCAAGCAAUAUUACGCGCC, which “self-splicing fitness (ln)” value (30 °C) is on record?
Its value is -3.06 ± 0.21.

What about the “self-splicing fitness (ln)” value (37 °C) of the same sequence?
Its value is -1.54 ± 0.17.

What does the source list for CGCAAGCAAUAUUACGCGGC?
self-splicing fitness (ln) (30 °C): -3.05 ± 0.28; self-splicing fitness (ln) (37 °C): -2.81 ± 0.38

With CGCAAGCAAUAUUACGCGUC as the sequence, how does the “self-splicing fitness (ln)” value (30 °C) read?
Its value is -3.7 ± 0.37.

And the “self-splicing fitness (ln)” value (37 °C)?
The value was -3.31 ± 0.35.

Which “self-splicing fitness (ln)” value (30 °C) does the source give for CGCAAGCAAUAUUACGCUUC here?
The value was -3.18 ± 0.3.
